# Ends that are not written are not given here. * marks the point of attachment. Biotin = O=C1N[C@H]2[C@H](CS[C@H]2CCCCC(=O)*)N1
# Tests used:
# [1] = target: SteC_(210-429) WT (Salmonella Typhimurium strain 14028s, UniProt D0ZIB5 210-429); assay: BLI; […] (1 ug/ml) […] (SA) biosensors; […]; Octet Red, 25 °C; 50 mM HEPES pH 7.5, 150 mM NaCl, 10 mM MgCl2, 0.5 mM TCEP, 0.05% Tween-20; […]; details: both partners purified
# [2] = target: SteC_(210-429;K256H) (Salmonella Typhimurium strain 14028s, UniProt D0ZIB5 210-429, K256H); assay: as above; details: both partners purified
binder,measurement,setting,value
"Biotin-KGPPSSVPKSRHLTIKLTPAHSRK (peptide, UniProt O95466 190-213, looked up) [N-terminally biotinylated FMNL1 peptide]",Kd,[1],7.9 µM
same,Kd,[2],22 µM

# From article doi:10.1101/2025.03.01.640964 (bioRxiv, 2025)
